Test results taken from paper PMC4805664 (2016).
Square brackets hold non-standard residues; d marks the D form. * marks the point of attachment. DOTA = O=C(O)CN1CCN(CC(=O)O)CCN(CC(=O)*)CCN(CC(=O)O)CC1

Experiments:
La-DOTA-c(RGDyK) [1] = biological target: T1, La-DOTA-c(RGDyK) (also: DOTA as La complex); experiment: SPR competition
T1 chain: cyclo(RGD[dY]K(DOTA))

La-DOTA-c(RGDyK) [2] = biological target: T1, La-DOTA-c(RGDyK); experiment: SPR competition

B1: Integrin alphaVbeta3 (protein)
chain 1: FNLDVDSPAEYSGPEGSYFGFAVDFFVPSASSRMFLLVGAPKANTTQPGIVEGGQVLKCDWSSTRRCQPIEFDATGNRDYAKDDPLEFKSHQWFGASVRSKQDKILACAPLYHWRTEMKQEREPVGTCFLQDGTKTVEYAPCRSQDIDADGQGFCQGGFSIDFTKADRVLLGGPGSFYWQGQLISDQVAEIVSKYDPNVYSIKYNNQLATRTAQAIFDDSYLGYSVAVGDFNGDGIDDFVSGVPRAARTLGMVYIYDGKNMSSLYNFTGEQMAAYFGFSVAATDINGDDYADVFIGAPLFMDRGSDGKLQEVGQVSVSLQRASGDFQTTKLNGFEVFARFGSAIAPLGDLDQDGFNDIAIAAPYGGEDKKGIVYIFNGRSTGLNAVPSQILEGQWAARSMPPSFGYSMKGATDIDKNGYPDLIVGAFGVDRAILYRARPVITVNAGLEVYPSILNQDNKTCSLPGTALKVSCFNVRFCLKADGKGVLPRKLNFQVELLLDKLKQKGAIRRALFLYSRSPSHSKNMTISRGGLMQCEELIAYLRDESEFRDKLTPITIFMEYRLDYRTAADTTGLQPILNQFTPANISRQAHILLDCGEDNVCKPKLEVSVDSDQKKIYIGDDNPLTLIVKAQNQGEGAYEAELIVSIPLQADFIGVVRNNEALARLSCAFKTENQTRQVVCDLGNPMKAGTQLLAGLRFSVHQQSEMDTSVKFDLQIQSSNLFDKVSPVVSHKVDLAVLAAVEIRGVSSPDHVFLPIPNWEHKENPETEEDVGPVVQHIYELRNNGPSSFSKAMLHLQWPYKYNNNTLLYILHYDIDGPMNCTSDMEINPLRIKISSLQTTEKNDTVAGQGERDHLITKRDLALSEGDIHTLGCGVAQCLKIVCQVGRLDRGKSAILYVKSLLWTETFMNKENQNHSYSLKSSASFNVIEFPYKNLPIEDITNSTLVTTNVTWGIQPAPMPV
chain 2: GPNICTTRGVSSCQQCLAVSPMCAWCSDEALPLGSPRCDLKENLLKDNCAPESIEFPVSEARVLEDRPLSDKGSGDSSQVTQVSPQRIALRLRPDDSKNFSIQVRQVEDYPVDIYYLMDLSYSMKDDLWSIQNLGTKLATQMRKLTSNLRIGFGAFVDKPVSPYMYISPPEALENPCYDMKTTCLPMFGYKHVLTLTDQVTRFNEEVKKQSVSRNRDAPEGGFDAIMQATVCDEKIGWRNDASHLLVFTTDAKTHIALDGRLAGIVQPNDGQCHVGSDNHYSASTTMDYPSLGLMTEKLSQKNINLIFAVTENVVNLYQNYSELIPGTTVGVLSMDSSNVLQLIVDAYGKIRSKVELEVRDLPEELSLSFNATCLNNEVIPGLKSCMGLKIGDTVSFSIEAKVRGCPQEKEKSFTIKPVGFKDSLIVQVTFDCDCACQAQAEPNSHRCNNGNGTFECGVCRCGPGWLGSQCECSEEDYRPSQQDECSPREGQPVCSQRGECLCGQCVCHSSDFGKITGKYCECDDFSCVRYKGEMCSGHGQCSCGDCLCDSDWTGYYCNCTTRTDTCMSSNGLLCSGRGKCECGSCVCIQPGSYGDTCEKCPTCPDACTFKKECVECKKFDRGALHDENTCNRYCRDEIESVKELKDTGKDAVNCTYKNEDDCVVRFQYYEDSSGKSILYVVEEPECPKGPD
Ki (La-DOTA-c(RGDyK) [1]): 0.026 µM | IC50 (La-DOTA-c(RGDyK) [2]): 0.033 µM
